According to patent US12269859B2, “Synthetic immune receptors and methods of use thereof” (Angeles Therapeutics, Inc., priority 2016, dated 2025):

System: target antigen-expressing cell line
Test: Jurkat NFAT-GFP assay, coculture with target cell lines expressing the respective target antigen (summary Table 10A)
Format: cell-based, human
Parameters: key: The signs +/−, +, 2+ etc. after the name of the cell lines indicate the relative degree of positivity on the Jurkat-NFAT-GFP assay as measured by the % GFP positive cells; +: relative degree of positivity on the Jurkat-NFAT-GFP assay as measured by the % GFP positive cells; 2+: relative degree of positivity on the Jurkat-NFAT-GFP assay as measured by the % GFP positive cells
Details: relative % GFP positive cells
Summary of the method: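 Read-out: % GFP+ cells by FACS. SIR-transduced, puromycin-selected Jurkat NFAT-GFP (IL-2 promoter reporter) cocultured ~4–18 h with target line, E:T ~1:2; parental cells as control; graded +/−, +, 2+ relative to parental.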

| Molecule | NFAT-GFP ASSAY Positive Cell lines: U266 (SIR-expressing Jurkat-NFAT-GFP cells cocultured with U266) | NFAT-GFP ASSAY Positive Cell lines: RAJI (SIR-expressing Jurkat-NFAT-GFP cells cocultured with RAJI) |
| --- | --- | --- |
| 101416-A05 (protein, Synthetic Immune Receptor (SIR)) MALPVTALLLPLALLLHAARPQSVLTQPPSVSGAPGQRVTISCTGSSSNIGAGFDVHWYQQLPGTAPKLLIYGNSNRPSGVPDRFSGSKSGTSASLAITGLQAEDEADYYCQSYDSSLSGYVFGTGTKVTVLGLEEQKLISEEDLGSGEDLKNVFPPEVAVFEPSKAEIAHTQKATLVCLATGFYPDHVELSWWVNGKEVHSGVCTDPQPLKEQPALNDSRYCLSSRLRVSATFWQNPRNHFRCQVQFYGLSENDEWTQDRAKPVTQIVSAEAWGRADCGITSASYHQGVLSATILYEILLGKATLYAVLVSALVLMAMVKRKDSRGRAKRSGSGATNFSLLKQAGDVEENPGPTSMDWIWRILFLVGAATGAHSFEQVQLVQSGAEVKKPGASVKVSCKASGYTFTDYYMHWVRQAPGQRLEWMGWINPNSGGTNYAQKFQDRITVTRDTSSNTGYMELTRLRSDDTAVYYCARSPYSGVLDKWGQGTLVTVSSTREQKLISEEDLGSGIQNPDPAVYQLRDSKSSDKSVCLFTDFDSQTNVSQSKDSDVYITDKCVLDMRSMDFKSNSAVAWSNKSDFACANAFNNSIIPEDTFFPSSDVPCDVKLVEKSFETDTNLNFQNLSVIGFRILLLKVAGFNLLMTLRLWSSRAKRSGSGVKQTLNFDLLKLAGDVESNPGPSRGHMTEYKPTVRLATRDDVPRAVRTLAAAFADYPATRHTVDPDRHIERVTELQELFLTRVGLDIGKVWVADDGAAVAVWTTPESVEAGAVFAEIGPRMAELSGSRLAAQQQMEGLLAPHRPKEPAWFLATVGVSPDHQGKGLGSAVVLPGVEAAERAGVPAFLETSAPRNLPFYERLGFTVTADVEVPEGPRTWCMTRKPGA | U266 (+) |  |
| 012417-J04 (protein) MALPVTALLLPLALLLHAARPLEGKPIPNPLLGLDSTGSGEDLKNVFPPEVAVFEPSKAEIAHTQKATLVCLATGFYPDHVELSWWVNGKEVHSGVCTDPQPLKEQPALNDSRYCLSSRLRVSATFWQNPRNHFRCQVQFYGLSENDEWTQDRAKPVTQIVSAEAWGRADCGITSASYHQGVLSATILYEILLGKATLYAVLVSALVLMAMVKRKDSRGRAKRSGSGATNFSLLKQAGDVEENPGPTSMALPVTALLLPLALLLHAARPSTVMTQSPDSLAVSLGERATINCKSSQSNSNDVAWYQQKPGQSPKVLIYFASNRYSGVPDRFSGSGYGTDFTLTISSLQAEDVAVYFCQQDYSSPLTFGAGTKLELKRADAGGGGSGGGGSGGGGSQIQLVQSGSELKKPGASVKVSCKASGYTFTNFGVNWVRQAPGKGLEWMGWINTYTGEPSYAQGFTGRFVFSLDASVSTAYLQISSLKAEDTATYFCTRRTNYYGTSYYYAMDYWGQGTTVTVSSAKTTTREQKLISEEDGSGIQNPDPAVYQLRDSKSSDKSVCLFTDFDSQTNVSQSKDSDVYITDKCVLDMRSMDFKSNSAVAWSNKSDFACANAFNNSIIPEDTFFPSSDVPCDVKLVEKSFETDTNLNFQNLSVIGFRILLLKVAGFNLLMTLRLWSSRAKRSGSGVKQTLNFDLLKLAGDVESNPGPSRGHMTEYKPTVRLATRDDVPRAVRTLAAAFADYPATRHTVDPDRHIERVTELQELFLTRVGLDIGKVWVADDGAAVAVWTTPESVEAGAVFAEIGPRMAELSGSRLAAQQQMEGLLAPHRPKEPAWFLATVGVSPDHQGKGLGSAVVLPGVEAAERAGVPAFLETSAPRNLPFYERLGFTVTADVEVPEGPRTWCMTRKPGA |  | RAJI (+) |
